Measurements reported in publication PMC5670239, “Structural basis for mutually exclusive co-transcriptional nuclear cap-binding complexes with either NELF-E or ARS2” (Nature Communications, 2017).

Key:
[1] = target: T1, m^7GTP-CBC (Homo sapiens, UniProt P52298+Q09161); test: ITC, binding to CBC in the presence of the cap analogue m^7GTP; conditions: for Kd: ITC, 25 °C, 20 mM HEPES, 120 mM NaCl, 2 mM TCEP, pH 7.8, CBC bound to m^7GTP, mean ± SD of at least two independent experiments
T1 construct: 6-histidine tag (pETM30 vector) (N, cleaved yes); made in house; host or cells: CBP20 in E. coli Rosetta 2; CBP80ΔNLS in High Five insect cells; heterodimer reconstituted on Ni-sepharose
T1 sequence (Q09161 20-790): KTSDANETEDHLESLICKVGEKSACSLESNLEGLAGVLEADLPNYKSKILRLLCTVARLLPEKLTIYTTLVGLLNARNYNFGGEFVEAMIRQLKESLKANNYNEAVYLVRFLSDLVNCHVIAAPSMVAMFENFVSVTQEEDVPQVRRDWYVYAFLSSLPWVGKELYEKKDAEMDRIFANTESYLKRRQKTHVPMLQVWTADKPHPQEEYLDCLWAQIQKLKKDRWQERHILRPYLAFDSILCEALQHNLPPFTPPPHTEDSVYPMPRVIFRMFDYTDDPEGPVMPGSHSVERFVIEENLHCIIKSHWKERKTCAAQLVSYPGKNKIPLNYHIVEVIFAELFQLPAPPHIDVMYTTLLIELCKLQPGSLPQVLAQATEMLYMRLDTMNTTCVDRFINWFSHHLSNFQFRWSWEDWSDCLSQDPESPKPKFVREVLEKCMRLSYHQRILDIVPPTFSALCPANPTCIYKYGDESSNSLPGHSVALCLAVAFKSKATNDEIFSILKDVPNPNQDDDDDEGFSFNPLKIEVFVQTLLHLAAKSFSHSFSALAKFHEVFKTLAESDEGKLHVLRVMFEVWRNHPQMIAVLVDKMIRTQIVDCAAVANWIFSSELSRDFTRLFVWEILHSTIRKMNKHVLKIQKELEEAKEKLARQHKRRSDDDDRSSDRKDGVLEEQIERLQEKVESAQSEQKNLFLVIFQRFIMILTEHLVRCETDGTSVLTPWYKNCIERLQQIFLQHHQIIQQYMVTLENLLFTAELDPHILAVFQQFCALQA
T1 sequence (P52298 1-156): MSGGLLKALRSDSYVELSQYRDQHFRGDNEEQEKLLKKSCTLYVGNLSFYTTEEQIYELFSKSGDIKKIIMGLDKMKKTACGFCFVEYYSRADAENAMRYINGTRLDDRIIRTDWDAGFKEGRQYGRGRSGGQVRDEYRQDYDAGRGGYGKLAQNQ
Source text: (§1) hARS2 isoform-4 (871 residues, UniProt:Q9BXP5-4, also known as isoform-e, NP_001122326) constructs (residues 147–871, 147–845, 763–871, 763–845, 827–871) hNELF-E (NM_002904.5) (244–380, 244–360) and hPHAX (NM_032177.3) (1–394, 103–294, 103–308, 103–327) were cloned into pETM11 (EMBL). Full-length hNELF-E (1–380) was cloned into pFASTBac and CBP20 into pETM30. Primers used are given in Supplementary Table 2. All constructs were expressed in E. coli Rosetta 2 (Novagen), except full-length NELF-E and CBP80ΔNLS (CBP80 with residues 1–19 deleted[2]), which were expressed in High Five insect cells (Life Technology). Cells were harvested and lysed by sonication in lysis buffer containing 50 mM HEPES, pH 7.8, 300 mM NaCl, 10% (v/v) glycerol, 5 mM β-mercaptoethanol. Lysates were clarified by centrifugation and applied on an equilibrated Ni-sepharose column (GE Healthcare), washed with 20 mM imidazole in lysis buffer, and eluted with 300 mM imidazole in lysis buffer. While dialysing into 20 mM HEPES, pH 7.8, 120 mM NaCl, 10% (v/v) glycerol, 5 mM β-mercaptoethanol, the N-terminal 6-histidine-tag was cleaved with His-tagged Tobacco Etch Virus (TEV) protease overnight in a ratio 1:100 mg TEV per mg protein. The cleaved protein was further purified first on Ni-sepharose to remove TEV and then using an anion exchange column (HiTrap Q, GE Healthcare) followed if necessary by a Heparin column (GE Healthcare). In both cases a NaCl gradient from 50 to 800 mM in 20 mM HEPES 7.8, 0.5 mM tris(2-carboxyethyl)phosphine was used. To reconstitute the CBC heterodimer, cleared His-tagged CBP20 lysate was first immobilised on a Ni-sepharose column. After washing the column with lysis buffer, the cleared CBP80 lysate was applied to the column and further purification steps performed as described above. To remove the access of CBP20 the flow through of the Ni-column after TEV cleavage was loaded on an anion exchange column (HiTrap Q, GE Healthcare) and CBC eluted by a NaCl gradient as described above. In the text we refer to CBP80ΔNLS and CBP80ΔNLS-CBP20 as CBP80 and CBC, respectively. ARS2^845–871, NELF-E^354–380, and NELF-E^360–380 peptides, with or without FAM label at the N-terminus, were purchased from GenScript.

[2] = target: m^7GTP-CBCmut; test: ITC, binding to mutated CBC in the presence of m^7GTP; design: species or system human; conditions: 25 °C, pH 7.8, CBCmut = CBP20 Y50A + CBP80 Y461A/R610E/H651A, with m^7GTP, mean ± SD of 2 experiments
Description: For CBC, a triple mutant in CBP80 (Y461A/R610E/H651A) was combined with various mutations in CBP20 (Y50A, Y50A/Y89A, or Y50A/Y89A/D107R).
ITC experiments were performed on a MicroCal ITC200 system (Malvern). Proteins were dialyzed overnight in buffer 20 mM HEPES, 120 mM NaCl, 2 mM tris(2-carboxyethyl)phosphine, pH 7.8. Injections of 1.5 µl protein A were added at an interval of 120–180 s into 205 µl of protein B in the cell, with a stirring speed of 800 rpm at 25 °C. The experimental data were analysed with MicroCal ITC Origin and were fitted to a single-site binding equation.

[3] = target: T1, m^7GTP-CBC; test: Fluorescence polarisation with FAM-labelled C-terminal peptides; format: binding; conditions: competition; 40 nM FAM peptide, 60 nM CBC, 25 µM m^7GTP, 25 °C; n = 3
Description: Fig. 4 Incompatibility of ARS2-PHAX and NELF-E binding to CBC. a, b Competition on m^7GTP-sepharose. a In separate experiments, different amounts of ARS2^147–871 were added to preformed CBC–NELF–E complex immobilised on m^7GTP-sepharose. […] The fluorophore FAM is represented with a star. Note that different constructs of NELF-E and ARS2 were used in c, d, and e compared to f, g, and h and are therefore represented by slightly different shapes. Error bars show the SD of three experiments
Fluorescence anisotropy binding assays were performed with N-terminal FAM-labelled ARS2^845–871 and […] peptides. 40 nM peptides were titrated with increasing concentrations of proteins in 20 mM HEPES, pH 7.8, 120 mM NaCl, 2 mM tris(2-carboxyethyl)phosphine. For the competition assay CBC–ARS2 and CBC–NELF–E complexes were preformed in the presence of 25 µM m^7GTP using 40 nM ARS2^827–871(FAM) peptide together with 60 nM CBC and 40 nM NELF-E^354–380(FAM) peptide with 1 µM CBC. […] To observe a change in polarisation at reasonable protein concentrations, CBC and NELF-E^244–380 concentrations that saturate half of the FAM-labelled peptides were used to preform the individual complexes. Fluorescence polarisation was measured at 25 °C with a microplate reader (CLARIOstar BMG LABTECH) using an excitation wavelength of 495 nm and emission wavelength of 515 nm. For analysis the polarisation value for the peptide alone was subtracted from the measurements.

[4] = target: T2, CBC (Homo sapiens, UniProt P52298); test: ITC, binding to CBC without cap analogue; conditions: ITC (MicroCal ITC200), 25 °C, 20 mM HEPES, 120 mM NaCl, 2 mM TCEP, pH 7.8, single-site fit; no cap analogue pre-bound; mean ± SD of at least two independent experiments; SD
T2 sequence (P52298 1-156): T1 sequence (P52298 1-156)
T2 sequence (Q09161 20-790 partner): T1 sequence (Q09161 20-790)
Source text: as §1

B1: NELF-E 244–380: C-terminal human NELF-E fragment including the RRM domain, E. coli expressed (protein, UniProt P18615 244-380, looked up, fragment)
chain: GPFRRSDSFPERRAPRKGNTLYVYGEDMTPTLLRGAFSPFGNIIDLSMDPPRNCAFVTYEKMESADQAVAELNGTQVESVQLKVNIARKQPMLDAATGKSVWGSLAVQNSPKGCHRDKRTQIVYSDDVYKENLVDGF
With B1 the Kd [1] was roughly 40 nM, the Kd ([1]; SD) was 50 ± 10 nM and the “Enhancement of the interaction with CBC when m^7GTP is bound” value ([1]; ratio of ITC K D without / with m^7GTP) was “eight times higher”. For the same molecule, the “K D” value [2] was “completely abolished binding”, the “Change of polarisation on titration to m^7GTP-CBC-ARS2^845–871(FAM)” value [3] was “decrease in polarisation” and the Kd [4] was 400 ± 200 nM.
